What all share (assay): BLI
For experiment [1], the target named is C12b-AM1 monobody.
For experiment [2], the target named is C12b-AM2 monobody.
The target in experiment [3] is C4-AM1 monobody.
Experiment [4] concerns the target C4-AM2 monobody.
In experiment [5] the target is C6b-AM2 monobody.

pKd: −log10 of the molar value.

Regarding “SARS-CoV-2 S protein receptor-binding domain, wild type (B.1.1) (from UniProt P0DTC2) (domain or fragment)”, the pKd was 9.00 in experiment [1]; over 11.00 in experiment [2]; 9.96 in experiment [3]; over 11.00 in experiment [4]; 9.44 in experiment [5].

As a reminder, the pKd is the Kd on a negative log10 scale, so that one unit is a factor of ten. A higher pKd goes with a small Kd.

For the origin of these results see article PMC8906176.
